Patent US20030082682A1 (published 2003)

T1: RXR interacting protein, RB204 (human, UniProt O75064 240-1496, limits assumed)
T1 construct: Prey clone from a two-hybrid cDNA library (human bone and cartilage cells) in a vector derived from pJG4-5
T1 sequence: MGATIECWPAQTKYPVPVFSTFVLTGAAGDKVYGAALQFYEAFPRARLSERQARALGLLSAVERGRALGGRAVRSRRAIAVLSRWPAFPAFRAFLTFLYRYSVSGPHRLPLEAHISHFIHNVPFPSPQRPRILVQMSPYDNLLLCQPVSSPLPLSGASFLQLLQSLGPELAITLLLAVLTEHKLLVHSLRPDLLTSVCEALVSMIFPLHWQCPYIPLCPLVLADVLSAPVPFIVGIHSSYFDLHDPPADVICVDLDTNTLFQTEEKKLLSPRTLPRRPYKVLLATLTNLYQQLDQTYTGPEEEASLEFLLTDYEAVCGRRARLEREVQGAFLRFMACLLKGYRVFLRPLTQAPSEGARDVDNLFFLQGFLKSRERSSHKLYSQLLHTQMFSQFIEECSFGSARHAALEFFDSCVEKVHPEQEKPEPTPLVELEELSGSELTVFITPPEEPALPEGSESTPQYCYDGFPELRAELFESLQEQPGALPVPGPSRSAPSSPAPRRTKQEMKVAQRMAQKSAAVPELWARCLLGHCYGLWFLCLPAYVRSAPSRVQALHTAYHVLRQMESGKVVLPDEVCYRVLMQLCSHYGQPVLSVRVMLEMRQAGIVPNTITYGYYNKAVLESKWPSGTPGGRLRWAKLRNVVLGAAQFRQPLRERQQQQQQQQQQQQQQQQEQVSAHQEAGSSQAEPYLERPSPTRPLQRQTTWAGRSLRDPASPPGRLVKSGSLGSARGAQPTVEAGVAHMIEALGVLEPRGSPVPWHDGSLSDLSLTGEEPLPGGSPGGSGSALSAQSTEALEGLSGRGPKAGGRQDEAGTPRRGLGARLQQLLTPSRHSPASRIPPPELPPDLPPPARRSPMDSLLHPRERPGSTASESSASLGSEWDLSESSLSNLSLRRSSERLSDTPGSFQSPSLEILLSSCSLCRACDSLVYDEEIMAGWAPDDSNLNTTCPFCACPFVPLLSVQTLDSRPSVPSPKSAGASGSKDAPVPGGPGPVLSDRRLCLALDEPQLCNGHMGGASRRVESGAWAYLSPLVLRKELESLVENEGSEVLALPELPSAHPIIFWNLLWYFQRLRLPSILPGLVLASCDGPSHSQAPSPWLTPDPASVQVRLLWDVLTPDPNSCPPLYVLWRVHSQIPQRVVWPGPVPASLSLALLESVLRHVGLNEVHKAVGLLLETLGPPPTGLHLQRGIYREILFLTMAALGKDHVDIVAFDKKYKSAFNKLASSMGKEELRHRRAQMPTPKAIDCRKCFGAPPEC

B1: ERb (receptor, UniProt Q92731 248-530, looked up)
chain: SGGHAPRVRELLLDALSPEQLVLTLLEAEPPHVLISRPSAPFTEASMMMSLTKLADKELVHMISWAKKIPGFVELSLFDQVRLLESCWMEVLMMGLMWRSIDHPGKLIFAPDLVLDRDEGKCVEGILEIFDMLLATTSRFRELKLQHKEYLCVKAMILLNSSMYPLVTATQDADSSRKLAHLLNAVTDALVWVIAKSGISSQQQSMRLANLLMLLSHVRHASNKGMEHLLNMKCKNVVPVYDLLLEMLNAHVLRGCKSSITGSECSPAEDSKSKEGSQNPQSQ
notes: Member of the panel of nuclear hormone receptors in the directed two-hybrid analysis; the construct is not described
B2: PPARd (receptor, UniProt Q03181 139-441, looked up)
chain: SHNAIRFGRMPEAEKRKLVAGLTANEGSQYNPQVADLKAFSKHIYNAYLKNFNMTKKKARSILTGKASHTAPFVIHDIETLWQAEKGLVWKQLVNGLPPYKEISVHVFYRCQCTTVETVRELTEFAKSIPSFSSLFLNDQVTLLKYGVHEAIFAMLASIVNKDGLLVANGSGFVTREFLRSLRKPFSDIIEPKFEFAVKFNALELDDSDLALFIAAIILCGDRPGLMNVPRVEAIQDTILRALEFHLQANHPDAQYLFPKLLQKMADLRQLVTEHAQMMQRIKKTETETSLHPLLQEIYKDMY
notes: as for B1
B3: PPARa (receptor, UniProt Q07869 167-468, looked up)
chain: SHNAIRFGRMPRSEKAKLKAEILTCEHDIEDSETADLKSLAKRIYEAYLKNFNMNKVKARVILSGKASNNPPFVIHDMETLCMAEKTLVAKLVANGIQNKEAEVRIFHCCQCTSVETVTELTEFAKAIPGFANLDLNDQVTLLKYGVYEAIFAMLSSVMNKDGMLVAYGNGFITREFLKSLRKPFCDIMEPKFDFAMKFNALELDDSDISLFVAAIICCGDRPGLLNVGHIEKMQEGIVHVLRLHLQSNHPDDIFLFPKLLQKMADLRQLVTEHAQLVQIIKKTESDAALHPLLQEIYRDMY
notes: as for B1
B4: HNF4g (receptor, UniProt Q14541 99-408, looked up)
chain: SNIPSINTLAQAEVRSRQISVSSPGSSTDINVKKIASIGDVCESMKQQLLVLVEWAKYIPAFCELPLDDQVALLRAHAGEHLLLGATKRSMMYKDILLLGNNYVIHRNSCEVEISRVANRVLDELVRPFQEIQIDDNEYACLKAIVFFDPDAKGLSDPVKIKNMRFQVQIGLEDYINDRQYDSRGRFGELLLLLPTLQSITWQMIEQIQFVKLFGMVKIDNLLQEMLLGGASNDGSHLHHPMHPHLSQDPLTGQTILLGPMSTLVHADQISTPETPLPSPPQGSGQEQYKIAANQASVISHQHLSKQKQL
notes: as for B1

Target: T1, RXR interacting protein, RB204
Assay: two-hybrid, directed analysis against a panel of nuclear hormone receptors
Experimental: Screening was performed as per standard protocols (Golemis et al., Current protocols in molecular biology, 20.0.1,1999). […] RB204 interacts weakly with ERa in the presence of estradiol. Sequence analysis identified an LXXLL nuclear hormone interaction motif within the RB204 open reading frame.

| Binder | binding result |
| --- | --- |
| B1 | no binding |
| B2 | no binding |
| B3 | no binding |
| B4 | no binding |
